T1: AND-1 SepB + CT (316–1129) (human, UniProt O75717 316-1129)
T1 construct: source: E. coli Rosetta2(DE3), purified (Ni-NTA, Q-Sepharose, TEV cleavage, Superdex 200)
T1 sequence (looked up): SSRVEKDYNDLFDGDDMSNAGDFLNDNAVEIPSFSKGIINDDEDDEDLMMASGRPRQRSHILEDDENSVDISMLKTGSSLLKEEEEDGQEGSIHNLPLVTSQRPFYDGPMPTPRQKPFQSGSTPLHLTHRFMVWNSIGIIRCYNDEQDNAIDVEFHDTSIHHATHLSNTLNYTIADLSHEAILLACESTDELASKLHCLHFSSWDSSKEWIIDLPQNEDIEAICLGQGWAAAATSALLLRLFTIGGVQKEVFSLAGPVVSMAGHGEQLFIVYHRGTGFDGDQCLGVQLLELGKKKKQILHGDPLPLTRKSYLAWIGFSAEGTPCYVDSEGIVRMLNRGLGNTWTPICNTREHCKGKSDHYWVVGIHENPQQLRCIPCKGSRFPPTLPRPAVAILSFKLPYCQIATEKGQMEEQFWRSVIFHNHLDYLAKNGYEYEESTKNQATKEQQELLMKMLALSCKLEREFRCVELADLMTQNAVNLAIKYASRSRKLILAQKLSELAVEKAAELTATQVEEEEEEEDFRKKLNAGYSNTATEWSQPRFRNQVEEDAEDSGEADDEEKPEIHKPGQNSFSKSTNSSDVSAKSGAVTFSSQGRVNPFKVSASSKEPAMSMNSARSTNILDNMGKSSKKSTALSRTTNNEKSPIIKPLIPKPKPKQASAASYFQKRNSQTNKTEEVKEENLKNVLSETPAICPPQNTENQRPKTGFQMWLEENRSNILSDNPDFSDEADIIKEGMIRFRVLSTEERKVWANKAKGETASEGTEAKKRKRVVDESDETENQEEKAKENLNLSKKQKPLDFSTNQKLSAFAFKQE

T2: Full-length His10-myc-tagged AND-1 (1–1129) (human, UniProt O75717 1-1129)
T2 construct: the oligomeric state was measured only on the SepB constructs; also called His-myc-AND-1; human CTF4-orthologue AND-1; source: Sf9 insect cells (baculovirus, MultiBac), purified (Ni-NTA, Q-Sepharose)
T2 sequence (looked up): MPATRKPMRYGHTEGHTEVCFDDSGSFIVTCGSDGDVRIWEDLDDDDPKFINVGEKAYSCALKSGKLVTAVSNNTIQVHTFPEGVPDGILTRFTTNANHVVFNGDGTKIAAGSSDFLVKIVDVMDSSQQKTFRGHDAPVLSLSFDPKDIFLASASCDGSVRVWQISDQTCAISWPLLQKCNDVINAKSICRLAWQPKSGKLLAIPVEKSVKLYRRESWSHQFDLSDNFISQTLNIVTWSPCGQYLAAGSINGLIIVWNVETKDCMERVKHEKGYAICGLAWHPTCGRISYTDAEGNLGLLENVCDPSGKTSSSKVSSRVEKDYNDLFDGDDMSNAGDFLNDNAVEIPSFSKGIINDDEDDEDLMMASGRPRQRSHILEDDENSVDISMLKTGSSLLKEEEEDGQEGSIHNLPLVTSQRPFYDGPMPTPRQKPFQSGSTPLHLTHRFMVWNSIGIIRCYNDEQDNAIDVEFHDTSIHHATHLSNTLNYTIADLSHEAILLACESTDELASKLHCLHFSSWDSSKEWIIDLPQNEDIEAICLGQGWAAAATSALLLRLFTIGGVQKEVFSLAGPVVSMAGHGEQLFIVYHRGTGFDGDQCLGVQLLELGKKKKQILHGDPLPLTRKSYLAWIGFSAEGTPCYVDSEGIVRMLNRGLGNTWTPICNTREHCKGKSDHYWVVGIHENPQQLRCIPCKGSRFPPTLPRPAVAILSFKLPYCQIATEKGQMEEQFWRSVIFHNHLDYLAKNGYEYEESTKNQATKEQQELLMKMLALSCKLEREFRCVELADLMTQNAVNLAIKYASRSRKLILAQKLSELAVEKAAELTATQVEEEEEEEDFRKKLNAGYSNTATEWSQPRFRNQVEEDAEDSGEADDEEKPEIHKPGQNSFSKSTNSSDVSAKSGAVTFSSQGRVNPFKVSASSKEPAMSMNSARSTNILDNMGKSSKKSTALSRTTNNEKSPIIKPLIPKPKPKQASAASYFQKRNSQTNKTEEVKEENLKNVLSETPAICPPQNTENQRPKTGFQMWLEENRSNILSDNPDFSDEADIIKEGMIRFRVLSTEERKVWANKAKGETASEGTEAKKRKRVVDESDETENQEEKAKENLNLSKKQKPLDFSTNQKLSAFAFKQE

T3: MBP-tagged AND-1CT (837–1129) (human, UniProt O75717 837-1129)
T3 construct: also called entire AND-1CT; source: E. coli Rosetta2(DE3), purified (Ni-NTA, Superdex 200)
T3 sequence (looked up): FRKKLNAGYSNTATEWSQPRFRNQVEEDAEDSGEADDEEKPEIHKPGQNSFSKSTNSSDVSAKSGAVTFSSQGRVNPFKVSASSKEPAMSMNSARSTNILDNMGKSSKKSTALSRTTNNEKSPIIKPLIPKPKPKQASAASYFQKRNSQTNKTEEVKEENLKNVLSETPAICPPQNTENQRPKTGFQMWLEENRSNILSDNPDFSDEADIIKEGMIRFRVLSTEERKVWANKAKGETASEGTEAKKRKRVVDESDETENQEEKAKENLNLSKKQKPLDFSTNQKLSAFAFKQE

T4: AND-1CT (human, UniProt O75717 837-1129)
T4 sequence: T3 sequence (looked up)

T5: AND-1 full length (human, UniProt O75717 1-1129)
T5 sequence: T2 sequence (looked up)

T6: AND-1 (329–826), SepB domain (human, UniProt O75717 329-826)
T6 construct: human AND-1, residues 329-826 (SepB domain); residues 329-420 and 824-826 not in the final crystallographic model; Trimer arises from crystallographic symmetry (one protomer per asymmetric unit); also called AND-1 SepB
T6 sequence (looked up): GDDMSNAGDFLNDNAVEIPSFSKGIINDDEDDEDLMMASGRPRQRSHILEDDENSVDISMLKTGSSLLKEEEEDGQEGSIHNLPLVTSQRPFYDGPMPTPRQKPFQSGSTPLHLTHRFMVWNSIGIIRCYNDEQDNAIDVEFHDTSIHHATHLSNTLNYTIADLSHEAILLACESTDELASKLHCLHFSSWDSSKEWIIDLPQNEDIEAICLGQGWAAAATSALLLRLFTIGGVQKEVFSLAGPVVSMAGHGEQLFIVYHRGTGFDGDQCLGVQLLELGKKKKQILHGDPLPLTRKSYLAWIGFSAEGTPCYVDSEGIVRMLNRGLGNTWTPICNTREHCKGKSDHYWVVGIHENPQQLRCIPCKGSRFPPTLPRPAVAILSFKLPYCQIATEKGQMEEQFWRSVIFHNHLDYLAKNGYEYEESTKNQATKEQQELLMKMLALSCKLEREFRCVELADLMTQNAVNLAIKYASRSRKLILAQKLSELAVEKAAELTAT

B1: GST-Pol α (148–171), wild type (domain or fragment, human)
chain: DKAVDLSKDGLLGDILQDLNTETP
notes: also called GST-Pol α CIP; GST-tagged Pol α CIP; source: E. coli Rosetta2(DE3), purified (Ni-NTA agarose); not shown: His tag (from the purification on Ni-NTA)
B2: GST-BNTD (B subunit amino acids 1–78) (domain or fragment, human, UniProt Q14181 1-78, looked up)
chain: MSASAQQLAEELQIFGLDCEEALIEKLVELCVQYGQNEEGMVGELIAFCTSTHKVGLTSEILNSFEHEFLSKRLSKAR
notes: human DNA polymerase α B subunit, residues 1-78 (four-helix bundle N-terminal domain); also called GST-B(1–78); B N-terminal domain; source: E. coli Rosetta2(DE3), purified (Ni-NTA agarose)
B3: fDNA (oligos A+C) (mixed)
DNA 1: CTTCCGAGACCTTGCCCATCCCGTAGAACCTGTTATCCAA
DNA 2: GCTACCTTTGAACCTACGATGATGGGCAAGGTCTCGGAAG
B4: AND-1 SepB (336–826) (domain or fragment, human, UniProt O75717 336-826, looked up)
chain: GDFLNDNAVEIPSFSKGIINDDEDDEDLMMASGRPRQRSHILEDDENSVDISMLKTGSSLLKEEEEDGQEGSIHNLPLVTSQRPFYDGPMPTPRQKPFQSGSTPLHLTHRFMVWNSIGIIRCYNDEQDNAIDVEFHDTSIHHATHLSNTLNYTIADLSHEAILLACESTDELASKLHCLHFSSWDSSKEWIIDLPQNEDIEAICLGQGWAAAATSALLLRLFTIGGVQKEVFSLAGPVVSMAGHGEQLFIVYHRGTGFDGDQCLGVQLLELGKKKKQILHGDPLPLTRKSYLAWIGFSAEGTPCYVDSEGIVRMLNRGLGNTWTPICNTREHCKGKSDHYWVVGIHENPQQLRCIPCKGSRFPPTLPRPAVAILSFKLPYCQIATEKGQMEEQFWRSVIFHNHLDYLAKNGYEYEESTKNQATKEQQELLMKMLALSCKLEREFRCVELADLMTQNAVNLAIKYASRSRKLILAQKLSELAVEKAAELTAT
notes: source: E. coli Rosetta2(DE3), purified (Ni-NTA, Q-Sepharose, TEV cleavage, Superdex 200)
B5: Fluorescein-labelled Pol α CIP peptide (152–171) (peptide)
peptide: DLSKDGLLGDILQDLNTETP
modifications: also: fluorescein label, position not given here
notes: source: synthetic peptide (Genosphere Biotechnologies)

In data set [1] the target is B4. The data set is described as follows: pull-down; GST-Pol α fusion proteins bound to 100 µl glutathione agarose, 20 nmol AND-1 SepB added as prey; PD buffer, 2.5 mg/ml BSA, 4°C; eluted with 20 mM reduced glutathione; Coomassie. The following applies: both partners purified.
Data set [2] addresses T1, AND-1 SepB + CT (316–1129). Description: pull-down; GST-B fusion proteins (in figure 6a also GST-Pol α CIP, equimolar) bound to 100 µl glutathione agarose, 2.2 nmol AND-1 (1–1129, 316–1129 or 336–826) added as prey; PD buffer, 2.5 mg/ml BSA, 4°C; Coomassie, anti-His western blot in figure 6a. The following applies: both partners purified.
Data set [3] addresses T2, Full-length His10-myc-tagged AND-1 …. Described as above. The settings on record: both partners purified.
Data set [4] deals with T3, MBP-tagged AND-1CT (837–1129). Description: pull-down; MBP-AND-1 constructs bound to 100 µl amylose resin, 25 nmol GST-B added as prey; PD buffer, 2.5 mg/ml BSA, 4°C; eluted with 20 mM maltose; Coomassie. The settings on record: both partners purified.
Data set [5] has as its target T4, AND-1CT. The data set is described as follows: fluorescence anisotropy; FP: 25 mM HEPES pH 7.2, 100 mM KCl, 0.5 mM TCEP, 20 nM DNA, 25 C; EMSA: 25 mM HEPES pH 7.2, 100 mM KCl, 5 mM MgCl2, TCEP, 3 uM DNA, 0.75% (so in the source) agarose gel in 0.5x Tris-borate pH 8.3, 4 C. The settings on record: protein: recombinant; tags: none (His6-MBP removed by TEV); label: 5' 6FAM; single strand. For orientation: Fluorescence polarisation rises when a labelled molecule tumbles more slowly, as on binding a larger partner.

In data set [6] the target is T5, AND-1 full length. The description is as above. The settings on record: protein: recombinant; tags: His10-myc; chain copies: 3; label: 5' 6FAM; single strand.
Data set [7] concerns the target T5, AND-1 full length. Description: EMSA; 5 mM MgCl2; FP: 25 mM HEPES pH 7.2, 100 mM KCl, 0.5 mM TCEP, 20 nM DNA, 25 C; EMSA: 25 mM HEPES pH 7.2, 100 mM KCl, 5 mM MgCl2, TCEP, 3 uM DNA, 0.75% (so in the source) agarose gel in 0.5x Tris-borate pH 8.3, 4 C. The following applies: protein: recombinant; tags: His10-myc; chain copies: 3; label: 5' 6FAM on strand 1; fork, 20 bp duplex (1:1-20 with 2:21-40), unpaired arms of 20 nt (1:21-40 3' arm, 2:1-20 5' arm).

Data set [8] deals with the molecule itself. The data set is described as follows: SEC-MALS; 100 µl AND-1 336–826 at 2–4 mg/ml on Superdex S200 10/300 GL; 25 mM HEPES pH 7.0, 200 mM NaCl.
For data set [9], the target named is T6, AND-1 (329–826), SepB domain. The data set is described as follows: fluorescence polarisation; 30 nM fluorescein-labelled Pol α CIP peptide, AND-1 SepB titrated; 25 mM HEPES pH 7.2, 140 mM NaCl, 5 mM DTT, 5 mM MgCl2, 5% glycerol; 25°C; 96-well plate. The settings on record: both partners purified.

No end group written: not given here.

By Kd is commonly meant the constant that tells how readily two partners part at equilibrium. As usually defined, the stoichiometry N is a count of units in the complex or per binding partner.

As for B1, the binding result in [1] is given as “binds”. As to B2, the binding result in [2], in [3] and in [4] was “binds” each time.

For the molecule CTTCCGAGACCTTGCCCATCCCGTAGAACCTGTTATCCAA (ssDNA) [ssDNA 40mer (oligo A)], the Kd in data set [5] and in [6] was around 800 nM throughout. Take B3: the binding result in data set [7] is reported as “binds”. In the case of B4, the “stoichiometry N” value in data set [8] came to 3.

In [9], B5 came in with a Kd of 39000 nM.

For the origin of these results see PMC5717350, “The human CTF4-orthologue AND-1 interacts with DNA polymerase α/primase via its unique C-terminal HMG box” (Open Biology, 2017).
